These are literature values, as cited in paper PMC4074225.

For orientation: pKd means −log10 of the Kd, conventionally taken in molar units.

pKd: −log10 of the molar value.

The target of the data set is PCNA (Homo sapiens) (UniProt P12004). Kind of data set: SPR. In general terms: In SPR one partner is held on a chip, and binding of the other changes the refractive index at the surface.
Sequence of UniProt P12004 (P12004 whole entry): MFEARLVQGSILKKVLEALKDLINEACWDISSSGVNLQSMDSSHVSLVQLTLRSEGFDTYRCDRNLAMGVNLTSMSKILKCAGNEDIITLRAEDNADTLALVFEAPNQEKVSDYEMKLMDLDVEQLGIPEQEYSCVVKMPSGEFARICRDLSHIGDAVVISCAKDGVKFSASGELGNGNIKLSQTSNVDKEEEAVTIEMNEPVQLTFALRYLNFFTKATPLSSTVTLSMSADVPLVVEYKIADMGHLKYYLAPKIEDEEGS

In the case of “DNA polymerase eta 694-713 (from UniProt Q9Y253)”, the negative-log Kd (pKd) is 6.40.
